The values below come from patent US9289506B2, “Surface binding of nanoparticle based drug delivery to tissue” (Massachusetts Institute of Technology, priority 2013, dated 2016).

For data set [1] the following is noted: dilute solution of DI water at pH 5; cited from earlier work.
Data set [2] can be described thus: Competitive binding of FITC-Avidin and unlabeled Avidin in cartilage (binding isotherm fit). The arrangement: species or system bovine. The settings on record: best fit of binding isotherm to FIG. 13 data. The method, then: To test this hypothesis, competitive binding experiments were performed in which 3 mm diameter cartilage disks were equilibrated for 3 days in 300 μl buffer containing a fixed amount of (fluorescently labeled) FITC-Avidin (1 μM) and graded amounts of unlabeled Avidin (0, 10, 76, 100, and 203 μM). The disks were split into half disks to reduce the time needed for equilibration, which was performed in 96 well plates at 37° C. The uptake ratio, RU, was measured and plotted versus the total bath concentration of Avidin (labeled+unlabeled, FIG. 13), where RU is defined as the total concentration of Avidin inside the cartilage (bound (CB) plus free (CF)) per intra-tissue water weight, normalized to the Avidin concentration in the equilibration bath (CBath):
Labeled and unlabeled Avidin were held to partition into the cartilage identically. At very low concentration of the labeled Avidin (≦1 μM), a high uptake of ˜120 was observed. When unlabeled Avidin was added to the bath, both species (labeled and unlabeled) could compete for the same (constant) number of binding sites available in the tissue (site density NT). […] To model the data of FIG. 13, a first-order, bimolecular, reversible reaction was produced to describe binding of Avidin to a single dominant binding species within cartilage. A theoretical model was adopted, (Garcia et al., Arch Biochem Biophys, 2003) previously used for characterizing the binding of soluble insulin like growth factor-1 (IGF-1) to IGF-binding proteins (IGF-BPs) that are uniformly enmeshed and fixed within cartilage matrix. According to this model, the equilibrium molar concentration of free solute (CF), bound solute (CB), intra-tissue binding site density (NT) and the equilibrium dissociation constant (KEQ) are related by the binding isotherm:
[formula] which is similar in form to a Langmuir adsorption isotherm. […]
[formula] […] Thus, K is determined by both steric hindrance and electrostatic (Donnan) interactions. […]

A short description of data set [3]: Intra-articular injection of Avidin or Neutravidin in rat knee joints: penetration, uptake and retention in joint tissues. The settings on record: for mean concentration in articular cartilage: rat, i.a. injection.
Protocol: Intra-articular (i.a.) injections of 50 μl of 50 μM Avidin (pI 10.5, 66 kDa, diameter ˜7 nm) or Neutravidin (neutral at pH 7, 60 kDa, diameter ˜7 nm) conjugated with Texas Red (both from Invitrogen, CA) were administered in the right knee joints of healthy 18-20 weeks old Fischer-344 rats (Charles River Laboratories). Following the injection, rat knees were flexed and extended to distribute the injected solute throughout the intra-articular space. Contralateral left knees were used as controls. Avidin injected rats were sacrificed at 4 different time points (6 h, 1 d, 4 d, 7 d) and Neutravidin injected rats were sacrificed after 1 day. The following tissue types were extracted from each joint: articular cartilage removed from the patellar groove, femoral condyle and tibial plateau using a scalpel; medial and lateral menisci; i.a. ligaments (ACL & PCL); patellar and quadriceps tendons; and femoral bone. 6 rats were used per treatment condition for a total of 30 rats. Using a digital caliper (Fisher Scientific), the joint thickness was measured before and after the injection at each time point to check for joint swelling indicating an inflammatory response to the injection.
Tissue samples extracted from the rat joints injected with Avidin-Texas Red (Excitation at 595 nm and emission at 615 nm) and sacrificed at 6 h were imaged using a confocal microscope (OLYMPUS, FluoView FV1000) at 10× magnification by taking Z stacks. Images were taken in X-Y plane, which represents the surface through which Avidin diffused. 3D images were reconstructed using Z stacking (slice thickness˜4.5 μm) and cross-sections in the X-Z plane of these 3D images were taken.
Tissue samples from all treatment conditions were then desorbed in 10×PBS for 48 h in 37° C. incubator to disrupt electrostatic interactions and release Avidin/Neutravidin into the desorption bath. […] At the end of the experiment, tissue samples were removed from the bath, lyophilized and the dry weight was measured. Fluorescence signal from desorption bath was quantified using a plate reader (Synergy HT, BioTek). […] The solute uptake was calculated as the concentration of labeled solute in the tissue samples normalized by tissue dry weight.
The half-life of Avidin was calculated by fitting an exponential curve to the experimental data:
Where, C0 is the initial and C(t) is the final Avidin concentration in tissue after time t and λ is the decay constant.
A short description of data set [4]: Equilibrium uptake and desorption of Avidin and NeutrAvidin in cartilage disks. Type of data set: in vitro ADME, bovine. The settings on record: for mean uptake ratio: 24 h. An excerpt:
Cartilage disks were harvested from the femoropatellar grooves of 1-2 week old bovine calf knee joints (obtained from Research 87, Hopkinton, Mass.) as described previously (Patwari et al., Arthritis Rheum, 2003). Briefly, cylindrical cartilage disks (3 mm or 6 mm diameter) were cored using a dermal punch and then sliced to obtain the top 1 mm of cartilage with intact superficial zone. Cartilage disks for all treatment groups were matched for depth and location along the joint surface. The disks were then pre-equilibrated in PBS (without Ca^2±/Mg^2±) supplemented with protease inhibitors (Complete Protease Cocktail tablet in 50 mL PBS, Roche Applied Science, IN) in a 37° C., 5% CO2 incubator for 24-48 h.
Equilibrium uptake of Avidin and NeutrAvidin: 3 mm diameter, 1 mm thick cartilage explants were incubated for specific times in 300 μl of known concentration (3 μM) of FITC-Avidin and FITC-NeutrAvidin, supplemented with protease inhibitors at 37° C. in a 96 well plate format. After removal from the absorption baths, the disks were rinsed, gently wiped and then incubated in 1× or 10×PBS supplemented with protease inhibitors for 24 h or longer as specified. At the end of the experiment, the surfaces of each disk were quickly blotted with Kimwipes and the wet weight was measured. The disks were then lyophilized and the dry weight was measured; the water weight was calculated from the tissue wet and dry weights. The fluorescence signal in the absorption and desorption baths was quantified using a plate reader (1400 Wallace Victor, PerkinElmer, MA); the solute content inside the cartilage disk was determined from the difference between the fluorescence reading of the absorption/desorption baths before and after incubation. […] The solute uptake ratio was calculated as the concentration of the FITC-solute in the cartilage (per intra-tissue water weight) normalized to the concentration of FITC-solute in the equilibration bath.

Data set [5] can be described thus: One-way diffusion of solutes into cartilage half disks in transport chamber, confocal microscopy imaging. Type of data set: in vitro ADME, bovine. The settings on record: normal cartilage.
Description: Solute Types: Two types of 15 nm diameter (MW˜300 kDa) Quantum Dots (QD) were used: (i) positively charged, and (ii) charge-neutral; same concentration. Transport of FITC (MW˜300 Da, diam˜0.9 nm) and dextrans (Dex) conjugated with FITC (Sigma Aldrich) of different MW (˜8 kDa, diam˜4.3 nm; ˜40 kDa, diam˜10 nm) were also investigated.
Transport Studies: A special PMMA transparent transport chamber was designed to allow diffusion of solutes into only one side (superficial zone) of the cartilage disk. The chamber was treated with Casein to block non-specific binding of solutes to chamber surfaces. The equilibrated cartilage disks were then cut into halves and placed in the middle of the ‘slot chambers’ of the fixture. The chamber side facing the superficial zone was filled with ˜45 μl of solute-PBS solution; the other side was filled with 1×PBS alone. […]
Using a scalpel, a slice (100-200 μm thick) was then cut from the center of each disk (FIG. 1B). […] Appropriate filters were chosen to eliminate auto-fluorescence of cartilage at the settings used for imaging. […] To ensure proper image comparison, solute concentrations were chosen such that the FITC concentration in each solution was identical, thereby giving equal fluorescence intensities.

Several values for one entry are separate records, joined by “and”; a condition that tells them apart may be missing. Equal entries are not always repeated. A value given as a limit tells only on which side of the number the result lay.

For “Avidin: positively charged globular glycosylated tetrameric protein, pI 10.5, 66 kDa, diameter ~7 nm (Invitrogen); SEQ ID NO 1”, the zeta potential in data set [1] is reported as 10 mV. For the same substance, the “equilibrium partition coefficient K” value in data set [2] was roughly 6. The Kd in data set [2] (read-out: equilibrium dissociation constant KEQ) was 150 µM and ~150 µM. In addition, the “knee joint inflammation (swelling, stiffness) after i.a. injection” value in data set [3] (6 h, 1 d, 4 d and 7 d) was “did not present any signs of swelling or joint stiffness”. In addition, the entries for the “concentration in articular cartilage as percent of 24 h value” in data set [3] (4 days) and in data set [3] (7 days) were 10.3% and 4.1%, respectively. Also, the Half-life in data set [3] (Cartilage) was found to be 29.0 h; in data set [3] (Ligament) it was 25.7 h; in data set [3] (Meniscus), 21.4 h; in data set [3] (Patella Tendon), 16.9 h; in data set [3] (Quadriceps Tendon), 27.2 h. Further, in data set [3] (any time point), the “detection in the femoral bone” value was “Neither Avidin nor Neutravidin was detected”. In addition, the “time to diffuse through the full thickness of joint tissues after i.a. injection” value in data set [3] (cartilage, menisci, ligaments, tendons, confocal) is no more than 6 h. The “dwell time inside the joint” value in data set [3] (rat knee) is given as 7 days. The “mean concentration in articular cartilage” value in data set [3] (6 h) turned out to be 4.7 μg/mg tissue dry weight; in data set [3] (24 h), 3.3 µg/mg; in data set [3] (4 days) it was 0.34 µg/mg; in data set [3] (7 days), 0.13 µg/mg. Also, the “percent of absorbed solute diffused out of the cartilage” value in data set [4] (10×PBS, within 24 h) is roughly 69%. In addition, the values for the mean uptake ratio in data set [4] (40% GAG-depleted cartilage (chondroitinase-ABC)) and in data set [4] (normal cartilage) were 24 and roughly 183, respectively. For the same substance, the “higher uptake of Avidin compared to NeutrAvidin” value in data set [4] (normal cartilage) was “greater than 400 times”. The “time to penetrate the full thickness (1 mm) of the cartilage explant” value in data set [5] is on record as no more than 24 h.
